For test [1], the target named is ATP synthase subunit g, mitochondrial (UniProt O75964). In words: IP-MS, FLAG-OMP25TM bait (control).
Test [2] addresses ATPase inhibitor, mitochondria; isoform 1 (UniProt Q9UII2). Briefly: IP-MS, FLAG-OMP25TM bait (control).
For test [3], the target named is ornithine aminotransferase (UniProt P04181). Briefly: IP-MS, FLAG-OMP25TM bait (control).
The target in test [4] is ATP synthase subunit O, mitochondrial precursor (UniProt P48047). In words: IP-MS, FLAG-OMP25TM bait (control).
ATP synthase subunit O, mitochondrial precursor, sequence (P48047 24-213 limits assumed): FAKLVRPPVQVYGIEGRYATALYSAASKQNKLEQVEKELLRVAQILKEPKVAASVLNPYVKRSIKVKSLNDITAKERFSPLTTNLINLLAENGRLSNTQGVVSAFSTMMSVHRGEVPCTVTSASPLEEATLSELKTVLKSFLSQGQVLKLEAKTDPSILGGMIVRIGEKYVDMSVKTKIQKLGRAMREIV
For test [5], the target named is ATP synthase subunit b, mitochondrial precursor (UniProt P24539). Briefly: IP-MS, FLAG-OMP25TM bait (control).
ATP synthase subunit b, mitochondrial precursor, sequence (P24539 43-256 limits assumed): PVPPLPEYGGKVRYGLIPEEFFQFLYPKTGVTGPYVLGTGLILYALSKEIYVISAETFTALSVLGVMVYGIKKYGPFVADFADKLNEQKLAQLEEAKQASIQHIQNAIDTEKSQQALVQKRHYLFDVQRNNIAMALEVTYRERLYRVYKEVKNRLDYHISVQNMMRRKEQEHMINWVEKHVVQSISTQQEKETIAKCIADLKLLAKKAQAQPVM
Test [6] deals with ATP synthase subunit beta (UniProt P06576). In words: IP-MS, FLAG-OMP25TM bait (control).
ATP synthase subunit beta, sequence (P06576 48-529): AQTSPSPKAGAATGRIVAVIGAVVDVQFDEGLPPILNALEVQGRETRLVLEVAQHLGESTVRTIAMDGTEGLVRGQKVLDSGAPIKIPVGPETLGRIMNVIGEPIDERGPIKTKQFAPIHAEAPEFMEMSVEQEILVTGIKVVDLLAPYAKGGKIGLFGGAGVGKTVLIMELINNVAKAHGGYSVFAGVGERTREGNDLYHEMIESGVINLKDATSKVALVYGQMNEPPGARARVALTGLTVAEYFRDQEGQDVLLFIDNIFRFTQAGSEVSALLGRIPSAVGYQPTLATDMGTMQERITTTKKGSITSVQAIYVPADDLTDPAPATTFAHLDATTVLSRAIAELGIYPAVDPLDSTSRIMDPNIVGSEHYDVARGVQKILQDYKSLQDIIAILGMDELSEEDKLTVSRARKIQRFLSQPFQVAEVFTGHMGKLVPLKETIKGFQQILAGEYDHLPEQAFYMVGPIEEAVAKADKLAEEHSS
Test [7] deals with ATP synthase subunit gamma, isoform L (UniProt P36542). Briefly: IP-MS, FLAG-OMP25TM bait (control).
ATP synthase subunit gamma, isoform L, sequence (P36542 26-298): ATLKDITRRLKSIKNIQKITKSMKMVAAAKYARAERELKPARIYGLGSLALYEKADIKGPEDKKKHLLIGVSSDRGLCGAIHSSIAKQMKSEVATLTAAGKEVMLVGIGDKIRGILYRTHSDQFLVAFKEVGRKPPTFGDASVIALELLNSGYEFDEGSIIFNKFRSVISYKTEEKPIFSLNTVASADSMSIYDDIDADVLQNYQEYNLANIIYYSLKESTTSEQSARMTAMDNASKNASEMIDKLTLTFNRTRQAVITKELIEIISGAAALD
Test [8] concerns the target UDP-glucose: glycoprotein glucosyltransferase 1 (UniProt Q9NYU2). Briefly: IP-MS, FLAG-OMP25TM bait (control).
The target in test [9] is ATP synthase subunit alpha (UniProt P25705). In words: IP-MS, FLAG-OMP25TM bait (control).
ATP synthase subunit alpha, sequence (P25705 44-553): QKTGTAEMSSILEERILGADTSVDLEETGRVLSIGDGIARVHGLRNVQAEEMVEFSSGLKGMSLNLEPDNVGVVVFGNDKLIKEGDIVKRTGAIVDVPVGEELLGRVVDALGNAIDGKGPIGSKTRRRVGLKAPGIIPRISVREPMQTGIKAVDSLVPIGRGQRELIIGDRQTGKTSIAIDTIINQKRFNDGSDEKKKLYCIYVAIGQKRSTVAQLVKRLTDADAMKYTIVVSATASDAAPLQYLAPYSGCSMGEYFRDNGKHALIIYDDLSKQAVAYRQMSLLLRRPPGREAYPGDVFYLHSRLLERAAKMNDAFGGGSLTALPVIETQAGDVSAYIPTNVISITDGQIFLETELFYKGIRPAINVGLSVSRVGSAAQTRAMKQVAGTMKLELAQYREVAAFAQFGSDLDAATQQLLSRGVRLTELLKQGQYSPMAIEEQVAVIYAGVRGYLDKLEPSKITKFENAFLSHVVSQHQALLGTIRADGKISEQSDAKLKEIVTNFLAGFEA
The target of test [10] is 60 kDa heat shock protein, mitochondrial (UniProt P10809). Briefly: IP-MS, FLAG-OMP25TM bait (control).
60 kDa heat shock protein, mitochondrial, sequence (P10809 27-573 limits assumed): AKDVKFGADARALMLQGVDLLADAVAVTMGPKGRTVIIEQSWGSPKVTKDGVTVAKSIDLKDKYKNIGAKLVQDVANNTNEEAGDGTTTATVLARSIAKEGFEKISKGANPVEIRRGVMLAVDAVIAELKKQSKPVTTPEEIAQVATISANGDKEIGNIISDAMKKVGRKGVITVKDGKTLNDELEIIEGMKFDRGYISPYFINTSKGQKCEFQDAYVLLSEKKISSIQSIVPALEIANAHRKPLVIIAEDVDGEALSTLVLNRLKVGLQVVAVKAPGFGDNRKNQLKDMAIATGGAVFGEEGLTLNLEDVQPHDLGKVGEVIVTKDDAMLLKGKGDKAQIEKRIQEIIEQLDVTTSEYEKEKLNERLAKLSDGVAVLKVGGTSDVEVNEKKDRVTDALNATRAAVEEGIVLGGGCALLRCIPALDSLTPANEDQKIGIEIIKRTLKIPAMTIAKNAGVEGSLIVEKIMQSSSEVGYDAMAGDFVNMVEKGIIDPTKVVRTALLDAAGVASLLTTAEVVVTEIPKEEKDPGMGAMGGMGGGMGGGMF
The target of test [11] is mitochondrial-processing peptidase subunit alpha (UniProt Q10713). Briefly: IP-MS, FLAG-OMP25TM bait (control).
mitochondrial-processing peptidase subunit alpha, sequence (Q10713 34-525 limits assumed): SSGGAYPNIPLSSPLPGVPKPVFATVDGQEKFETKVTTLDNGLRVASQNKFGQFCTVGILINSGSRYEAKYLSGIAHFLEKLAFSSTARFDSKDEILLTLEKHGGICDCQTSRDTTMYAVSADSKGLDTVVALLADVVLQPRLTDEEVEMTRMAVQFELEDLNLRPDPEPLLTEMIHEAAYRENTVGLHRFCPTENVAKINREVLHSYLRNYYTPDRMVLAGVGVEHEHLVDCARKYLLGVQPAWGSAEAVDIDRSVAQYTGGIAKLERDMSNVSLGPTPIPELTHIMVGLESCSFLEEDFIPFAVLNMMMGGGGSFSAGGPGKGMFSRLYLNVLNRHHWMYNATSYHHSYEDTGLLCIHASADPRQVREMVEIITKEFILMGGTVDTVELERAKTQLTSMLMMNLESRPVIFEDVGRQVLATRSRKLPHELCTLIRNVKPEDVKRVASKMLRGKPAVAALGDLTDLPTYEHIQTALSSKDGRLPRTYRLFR
Test [12] addresses mitochondrial-processing peptidase subunit beta (UniProt O75439). In words: IP-MS, FLAG-OMP25TM bait (control).
Test [13] deals with ATP synthase subunit d, mitochondrial isoform a (UniProt O75947). Briefly: IP-MS, FLAG-OMP25TM bait (control).
ATP synthase subunit d, mitochondrial isoform a, sequence (O75947 2-161): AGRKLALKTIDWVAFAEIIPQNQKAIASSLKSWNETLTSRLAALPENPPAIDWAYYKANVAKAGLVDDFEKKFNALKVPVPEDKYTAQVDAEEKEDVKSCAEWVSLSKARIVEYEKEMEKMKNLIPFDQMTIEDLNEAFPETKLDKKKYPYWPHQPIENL
Test [14] has as its target protein zyg-11 homolog B (UniProt Q9C0D3). Briefly: IP-MS, FLAG-OMP25TM bait (control).
Test [15] has as its target ATP synthase subunit g, mitochondrial (UniProt O75964). Briefly: IP-MS with Flag tagged ATPIF1 as bait, no antimycin.
Test [16] addresses ATPase inhibitor, mitochondria; isoform 1 (UniProt Q9UII2). The test is described as above.
In test [17] the target is ornithine aminotransferase (UniProt P04181). Described as above.
For test [18], the target named is ATP synthase subunit O, mitochondrial precursor (UniProt P48047). The description is as above.
For test [19], the target named is ATP synthase subunit b, mitochondrial precursor (UniProt P24539). The test is described as above.
Test [20] concerns the target ATP synthase subunit beta (UniProt P06576). Described as above.
Test [21] has as its target ATP synthase subunit gamma, isoform L (UniProt P36542). The test is described as above.
Test [22] has as its target UDP-glucose: glycoprotein glucosyltransferase 1 (UniProt Q9NYU2). Described as above.
The target of test [23] is ATP synthase subunit alpha (UniProt P25705). The test is described as above.
The target in test [24] is 60 kDa heat shock protein, mitochondrial (UniProt P10809). The test is described as above.
Test [25] concerns the target mitochondrial-processing peptidase subunit alpha (UniProt Q10713). Described as above.
In test [26] the target is mitochondrial-processing peptidase subunit beta (UniProt O75439). Described as above.
mitochondrial-processing peptidase subunit beta, sequence (O75439 44-489 limits assumed): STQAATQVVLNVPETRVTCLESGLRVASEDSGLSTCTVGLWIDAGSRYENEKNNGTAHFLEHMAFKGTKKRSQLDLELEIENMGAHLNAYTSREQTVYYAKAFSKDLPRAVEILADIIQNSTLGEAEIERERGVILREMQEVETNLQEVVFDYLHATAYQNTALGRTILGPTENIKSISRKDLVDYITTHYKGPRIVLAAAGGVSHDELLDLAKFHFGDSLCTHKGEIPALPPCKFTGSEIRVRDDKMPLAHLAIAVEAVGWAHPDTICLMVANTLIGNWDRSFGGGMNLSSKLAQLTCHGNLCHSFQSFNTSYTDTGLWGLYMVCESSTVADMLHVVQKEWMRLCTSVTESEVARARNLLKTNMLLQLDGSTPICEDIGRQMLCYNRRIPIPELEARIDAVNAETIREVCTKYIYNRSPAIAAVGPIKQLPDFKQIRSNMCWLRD
The target of test [27] is ATP synthase subunit d, mitochondrial isoform a (UniProt O75947). Described as above.
For test [28], the target named is protein zyg-11 homolog B (UniProt Q9C0D3). The test is described as above.
protein zyg-11 homolog B, sequence (Q9C0D3 whole entry): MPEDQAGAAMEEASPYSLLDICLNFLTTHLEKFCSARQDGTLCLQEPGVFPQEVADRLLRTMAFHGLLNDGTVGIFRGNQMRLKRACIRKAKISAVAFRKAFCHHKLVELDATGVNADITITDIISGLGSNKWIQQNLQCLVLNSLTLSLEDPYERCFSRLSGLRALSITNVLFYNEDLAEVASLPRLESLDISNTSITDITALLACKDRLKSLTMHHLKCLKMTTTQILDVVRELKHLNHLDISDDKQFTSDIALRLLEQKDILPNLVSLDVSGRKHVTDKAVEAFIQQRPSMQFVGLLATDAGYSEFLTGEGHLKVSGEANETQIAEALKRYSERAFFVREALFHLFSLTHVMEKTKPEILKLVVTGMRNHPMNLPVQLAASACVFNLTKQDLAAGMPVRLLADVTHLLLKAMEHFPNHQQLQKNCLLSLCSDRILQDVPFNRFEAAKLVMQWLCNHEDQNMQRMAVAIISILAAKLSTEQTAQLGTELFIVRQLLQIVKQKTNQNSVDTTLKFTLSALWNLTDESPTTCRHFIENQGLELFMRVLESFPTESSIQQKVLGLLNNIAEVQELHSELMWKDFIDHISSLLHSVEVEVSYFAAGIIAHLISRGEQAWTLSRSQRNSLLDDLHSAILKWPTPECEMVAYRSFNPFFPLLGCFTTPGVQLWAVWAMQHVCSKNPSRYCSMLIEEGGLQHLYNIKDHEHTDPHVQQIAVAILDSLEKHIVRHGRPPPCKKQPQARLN

ornithine aminotransferase, sequence (P04181 26-439 limits assumed): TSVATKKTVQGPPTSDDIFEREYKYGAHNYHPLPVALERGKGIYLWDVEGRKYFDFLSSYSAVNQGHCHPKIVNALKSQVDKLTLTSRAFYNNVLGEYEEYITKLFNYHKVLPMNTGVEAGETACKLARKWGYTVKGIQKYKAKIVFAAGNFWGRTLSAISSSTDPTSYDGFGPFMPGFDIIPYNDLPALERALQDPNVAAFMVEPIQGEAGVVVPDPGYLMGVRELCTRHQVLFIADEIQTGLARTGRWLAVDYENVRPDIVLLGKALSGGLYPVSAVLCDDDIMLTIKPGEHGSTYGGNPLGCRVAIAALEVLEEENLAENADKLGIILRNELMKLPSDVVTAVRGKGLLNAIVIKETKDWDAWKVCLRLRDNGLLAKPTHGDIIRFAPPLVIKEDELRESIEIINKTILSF
ATPase inhibitor, mitochondria; isoform 1, sequence (Q9UII2 26-106): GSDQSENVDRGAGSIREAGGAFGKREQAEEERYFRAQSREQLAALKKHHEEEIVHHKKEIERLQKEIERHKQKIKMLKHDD
ATP synthase subunit g, mitochondrial, sequence (O75964 2-103): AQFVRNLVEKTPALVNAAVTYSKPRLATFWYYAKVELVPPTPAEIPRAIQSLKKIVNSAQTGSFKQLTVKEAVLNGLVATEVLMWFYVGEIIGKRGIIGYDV

As for FLAG-OMP25TM, the IP-MS count (kind of count not given) in [1] is 0; in test [2], 3; in test [3], 1; in test [4] it was 3; in [5], 3; in [6], 7. Moreover, the IP-MS count (kind of count not given) in test [7] came to 2; in test [8], 5; in test [9], 11; in test [10] it was 4; in test [11], 0; in [12], 0. The IP-MS count (kind of count not given) in test [13] was found to be 1; in the test with protein zyg-11 homolog B [14], 0.

For the substance “Flag tagged ATPIF1 (from UniProt Q9UII2 26-106)”, the IP-MS count (kind of count not given) in [15] is 14; in [16] it was 175; in [17], 16; in test [18], 47; in test [19], 44; in [20], 375. Further, the IP-MS count (kind of count not given) worked out at 59 in test [21]; 15 in [22]; 381 in test [23]; 28 in test [24]; 14 in test [25]; 17 in [26]. The IP-MS count (kind of count not given) in test [27] came to 26; with protein zyg-11 homolog B [28], 19.

(Values after patent publication US20150065556A1, “THERAPEUTIC TARGETS FOR MITOCHONDRIAL DISORDERS” (Whitehead Institute for Biomedical Research, priority 2013, published 2015).)
